Consider two molecules from paper PMC1175818, “A Conserved Mechanism for Sulfonucleotide Reduction” (PLoS Biology, 2005).

Series [1] deals with E. coli PAPS reductase (E. coli). As to the kind of experiment: SEC; Superdex 200 gel filtration; 50 mM Tris-HCl (pH 8.0), 10% glycerol, 5 mM DTT, ionic strength adjusted to 150 mM with NaCl; column calibrated with protein standards; no change in retention volume when DTT was omitted.
Series [2] deals with the molecule itself. The description is as above.

Regarding E. coli PAPS reductase (enzyme), in series [1], the stoichiometry N is 2.

B1: P. aeruginosa APS reductase (enzyme, UniProt O05927 1-267, looked up)
chain: MLPFATIPATERNSAAQHQDPSPMSQPFDLPALASSLADKSPQDILKAAFEHFGDELWISFSGAEDVVLVDMAWKLNRNVKVFSLDTGRLHPETYRFIDQVREHYGIAIDVLSPDPRLLEPLVKEKGLFSFYRDGHGECCGIRKIEPLKRKLAGVRAWATGQRRDQSPGTRSQVAVLEIDGAFSTPEKPLYKFNPLSSMTSEEVWGYIRMLELPYNSLHERGYISIGCEPCTRPVLPNQHEREGRWWWEEATHKECGLHAGNLISKA
notes: APS reductase of P. aeruginosa, gene amplified from P. aeruginosa genomic DNA ATCC 47085D; Cloned into pET24b or pET14b; source: E. coli BL21(DE3), purified (HiTrap Chelating, Superdex 200 gel filtration)
Regarding B1, the “stoichiometry N” value in series [2] came to 4.

One may read the stoichiometry N as a count of units in the complex or per binding partner.
